We go through one molecule from paper PMC10457384 (2023).

Assay [1] concerns the target T1, Max 37-83 (Homo sapiens, UniProt P61244).
T1 chain: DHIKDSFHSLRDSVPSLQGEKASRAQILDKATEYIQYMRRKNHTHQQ
Put plainly: single-molecule SiNW-FET electrical recording (pH 6.5).

Assay [2] has as its target T1, Max 37-83. Nature of the assay: single-molecule SiNW-FET electrical recording (pH 7.4, 37 °C).

On to KRRTHNVLERQRRNELKRSFFALRDQIPELENNEKAPKVVILKKA (C-terminal cysteine added to c-Myc, immobilized on nanowire) [c-Myc 370-414], for which the figures for the Kd in the assay with Max 37-83 [1] and in the assay with Max 37-83 [2] were 67 nM and 205 nM, respectively.
